Values quoted from earlier work, collected in paper PMC8476072.

Target: CheZ (Escherichia coli) (UniProt P0A9H9)
UniProt P0A9H9, sequence (P0A9H9 whole entry): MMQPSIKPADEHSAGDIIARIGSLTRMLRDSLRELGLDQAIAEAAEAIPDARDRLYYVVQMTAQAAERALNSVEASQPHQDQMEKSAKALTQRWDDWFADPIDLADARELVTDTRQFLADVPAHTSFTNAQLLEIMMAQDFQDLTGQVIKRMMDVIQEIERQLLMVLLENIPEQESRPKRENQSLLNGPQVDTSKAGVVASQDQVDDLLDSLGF

Kd: 8 µM
Substance: CheY (from UniProt P0AE67)
